In article PMC6179936 (Journal of immunology (Baltimore, Md. : 1950), 2018):
Where no end group is shown, it is not given here. The star is where a group is joined. X1 = 2,3‑bis(palmitoyloxy)‑(2RS)‑propyl, CCCCCCCCCCCCCCCC(=O)OCC(C*)OC(=O)CCCCCCCCCCCCCCC; Palmitoyl = CCCCCCCCCCCCCCCC(=O)*

Target: T1, Recombinant human SAA1 made in human embryonic kidney (HEK) cells (human, UniProt P0DJI8 19-122)
T1 sequence (looked up): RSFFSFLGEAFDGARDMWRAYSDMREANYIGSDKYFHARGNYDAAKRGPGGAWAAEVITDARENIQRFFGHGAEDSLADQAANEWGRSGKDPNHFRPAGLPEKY
Test: retention on a 3 kDa cutoff centrifugal filter, read by TNFα from J774 cells

Palmitoyl-C(X1)SKKKK [Pam3CSK4, synthetic triacylated lipopeptide]
binding result: binds
